Biological target: T1, Flag-tagged CDK9 S90A (human, UniProt P50750 1-372, S90A)
T1 construct: also called Flag-CDK9 S90A
Assay: co-IP; Flag-CDK9 (WT or S90A) precipitated with anti-Flag antibodies from lysates of 293T cells co-transfected with cyclin T1, 48 hrs post-transfection; whole cell lysis buffer (50 mM Tris-HCl pH 7.5, 0.5 M NaCl, 1% NP-40, 0.1% SDS); IP 2 hrs at 4°C in TNN buffer (50 mM Tris-HCl pH 7.5, 150 mM NaCl, 1% NP-40); immunoblot for Hexim1, CDK9 and cyclin T1
Conditions: partners not purified

T1 sequence (P50750 whole entry S90A): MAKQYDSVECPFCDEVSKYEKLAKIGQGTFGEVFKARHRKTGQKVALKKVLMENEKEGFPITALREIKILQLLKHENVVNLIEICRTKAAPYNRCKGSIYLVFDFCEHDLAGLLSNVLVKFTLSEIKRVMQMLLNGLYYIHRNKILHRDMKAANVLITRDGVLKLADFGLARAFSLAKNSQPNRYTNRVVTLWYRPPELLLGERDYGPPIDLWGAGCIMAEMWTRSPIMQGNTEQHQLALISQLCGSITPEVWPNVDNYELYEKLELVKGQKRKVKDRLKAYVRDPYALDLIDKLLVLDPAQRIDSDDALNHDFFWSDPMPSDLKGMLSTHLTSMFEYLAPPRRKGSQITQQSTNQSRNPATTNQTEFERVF

B1: HEXIM1 (natural protein, human (endogenous in 293T), UniProt O94992 1-359, looked up)
chain: MAEPFLSEYQHQPQTSNCTGAAAVQEELNPERPPGAEERVPEEDSRWQSRAFPQLGGRPGPEGEGSLESQPPPLQTQACPESSCLREGEKGQNGDDSSAGGDFPPPAEVEPTPEAELLAQPCHDSEASKLGAPAAGGEEEWGQQQRQLGKKKHRRRPSKKKRHWKPYYKLTWEEKKKFDEKQSLRASRIRAEMFAKGQPVAPYNTTQFLMDDHDQEEPDLKTGLYSKRAAAKSDDTSDDDFMEEGGEEDGGSDGMGGDGSEFLQRDFSETYERYHTESLQNMSKQELIKEYLELEKCLSRMEDENNRLRLESKRLGGDDARVRELELELDRLRAENLQLLTENELHRQQERAPLSKFGD
notes: source: endogenous, 293T lysate
B1 was tested, and the “HEXIM1 co-precipitated, relative to WT CDK9” value was roughly 50 % less.

Reference: publication PMC3515335, “CDK2 Regulates HIV-1 Transcription by Phosphorylation of CDK9 on Serine 90” (Retrovirology, 2012)
